Sequences and labels used below:
B1: IgG1-F1302 (antibody)
heavy: QVQLQESGPGLVKPSETLSLTCAVSGHSISHDHAWSWVRQPPGEGLEWIGFISYSGITNYNPSLQGRVTISRDNSKNTLYLQMNSLRAEDTAVYYCARSLARTTAMDYWGEGTLVTVSSASTKGPSVFPLAPSSKSTSGGTAALGCLVKDYFPEPVTVSWNSGALTSGVHTFPAVLQSSGLYSLSSVVTVPSSSLGTQTYICNVNHKPSNTKVDKKVEPKSCDKTHTCPPCPAPELRGGPKVFLFPPKPKDTLYISREPEVTCVVVDVSHEDPEVKFNWYVDGVEVHNAKTKPREEQYNSTYRVVSVLTVLHQDWLNGKEYKCKVSNKALPAPIEKTISKAKGQPREPQVYTLPPSRDELTKNQVSLTCLVKGFYPSDIAVEWESNGQPENNYKTTPPVLDSDGSFFLYSKLTVDKSRWQQGNVFSCSVMHEALDYHYTKKDLSLSP
light: not shown
notes: EU numbering; copies: 2 + 2
B2: IgG1-F1351 (antibody)
heavy: B1 heavy with E258T, D435H, Y438F, K440R, D442E
light: not shown
notes: EU numbering; copies: 2 + 2
B3: IgG1-F1305 (antibody)
heavy: B1 heavy with E258T, Y438V, K440R
light: not shown
notes: EU numbering; copies: 2 + 2
B4: IgG1-F1307 (antibody)
heavy: B1 heavy with E258T, V424A, S426A, D435H, Y438V, K440Q, D442S
light: not shown
notes: EU numbering; copies: 2 + 2
B5: IgG1-F1352 (antibody)
heavy: B1 heavy with E258T, Y438T, D442E
light: not shown
notes: EU numbering; copies: 2 + 2
B6: IgG1-F1323 (antibody)
heavy: B1 heavy with S256T, E258T, Y438V, D442E
light: not shown
notes: EU numbering; copies: 2 + 2
B7: IgG1-F1353 (antibody)
heavy: B1 heavy with E258T, Y438T, K440R, D442E
light: not shown
notes: EU numbering; copies: 2 + 2
B8: IgG1-F1319 (antibody)
heavy: B1 heavy with R237L, K241S, E258T, L330Y, D435H, K440Q, D442S
light: not shown
notes: EU numbering; copies: 2 + 2
B9: IgG1-F1336 (antibody)
heavy: B1 heavy with G238R, D435H, Y438V
light: not shown
notes: EU numbering; copies: 2 + 2
B10: IgG1-F1354 (antibody)
heavy: B1 heavy with E258T, Y438F, D442E
light: not shown
notes: EU numbering; copies: 2 + 2
B11: IgG1-F1346 (antibody)
heavy: B1 heavy with G238R, S256T, E258T, D435H, Y438V, D442E
light: not shown
notes: EU numbering; copies: 2 + 2
B12: IgG1-F1309 (antibody)
heavy: B1 heavy with E258T, D435H, Y438V, K440A, D442A
light: not shown
notes: EU numbering; copies: 2 + 2
B13: IgG1-F1306 (antibody)
heavy: B1 heavy with E258T, Y438V, D442E
light: not shown
notes: EU numbering; copies: 2 + 2
B14: IgG1-F1310 (antibody)
heavy: B1 heavy with E258T, D435H, Y438V, K440L, D442L
light: not shown
notes: EU numbering; copies: 2 + 2
B15: IgG1-F1347 (antibody)
heavy: B1 heavy with G238R, D435H, Y438V, D442E
light: not shown
notes: EU numbering; copies: 2 + 2
B16: IgG1-F1314 (antibody)
heavy: B1 heavy with E258T, Y438V, K440L, D442L
light: not shown
notes: EU numbering; copies: 2 + 2
B17: IgG1-F1328 (antibody)
heavy: B1 heavy with G238R, E258T, D435H, Y438V, K440R, D442E
light: not shown
notes: EU numbering; copies: 2 + 2
B18: IgG1-F1327 (antibody)
heavy: QVQLQESGPGLVKPSETLSLTCAVSGHSISHDHAWSWVRQPPGEGLEWIGFISYSGITNYNPSLQGRVTISRDNSKNTLYLQMNSLRAEDTAVYYCARSLARTTAMDYWGEGTLVTVSSASTKGPSVFPLAPSSKSTSGGTAALGCLVKDYFPEPVTVSWNSGALTSGVHTFPAVLQSSGLYSLSSVVTVPSSSLGTQTYICNVNHKPSNTKVDKKVEPKSCDKTHTCPPCPAPEAAGGPSVFLFPPKPKDVLYISRTPEVTCVVVDVSHEDPEVKFNWYVDGVEVHNAKTKPREEQYASTYRVVSVLQPLHADWLNGKEYKCKVSNKALPAPIEKTISKAKGQPREPQVYTLPPSRDELTKNQVSLTCLVKGFYPSDIAVEWESNGQPENNYKTTPPVLDSDGSFFLYSKLTVDKSRWQQGNVFSCSVMHEALHYHVTQKSLSLSP
light: not shown
notes: copies: 2 + 2
B19: IgG1-F1334 (antibody)
heavy: B1 heavy with G238R, E258T, D435H, Y438V
light: not shown
notes: EU numbering; copies: 2 + 2
B20: IgG1-F1361 (antibody)
heavy: B1 heavy with S256T, E258T, Y438T, K440R, D442E
light: not shown
notes: EU numbering; copies: 2 + 2
B21: IgG1-F1355 (antibody)
heavy: B1 heavy with E258T, Y438F, K440R, D442E
light: not shown
notes: EU numbering; copies: 2 + 2
B22: IgG1-F1348 (antibody)
heavy: B1 heavy with G238R, S256T, D435H, Y438V, D442E
light: not shown
notes: EU numbering; copies: 2 + 2
B23: IgG1-F1313 (antibody)
heavy: B1 heavy with E258T, Y438V, K440A, D442A
light: not shown
notes: EU numbering; copies: 2 + 2
B24: IgG1-F1304 (antibody)
heavy: B1 heavy with Y438F
light: not shown
notes: EU numbering; copies: 2 + 2
B25: IgG1-F1360 (antibody)
heavy: B1 heavy with S256T, E258T, Y438T, D442E
light: not shown
notes: EU numbering; copies: 2 + 2
B26: IgG1-F1311 (antibody)
heavy: B1 heavy with E258T, V424A, S426A, Y438V, K440Q, D442S
light: not shown
notes: EU numbering; copies: 2 + 2
B27: IgG1-F1326 (antibody)
heavy: B18 heavy with A299N
light: not shown
notes: copies: 2 + 2
B28: IgG1-F1312 (antibody)
heavy: B1 heavy with E258T, V424L, S426L, Y438V, K440Q, D442S
light: not shown
notes: EU numbering; copies: 2 + 2
B29: IgG1-F1308 (antibody)
heavy: B1 heavy with E258T, V424L, S426L, D435H, Y438V, K440Q, D442S
light: not shown
notes: EU numbering; copies: 2 + 2
B30: IgG1-F1331 (antibody)
heavy: B1 heavy with G238R, S256T, D435H, Y438V, K440R, D442E
light: not shown
notes: EU numbering; copies: 2 + 2
B31: IgG1-F1321 (antibody)
heavy: B1 heavy with S256T, E258T, D435H, Y438V, D442E
light: not shown
notes: EU numbering; copies: 2 + 2
B32: IgG1-F1342 (antibody)
heavy: B1 heavy with D435H, Y438T, D442E
light: not shown
notes: EU numbering; copies: 2 + 2
B33: IgG1-F1341 (antibody)
heavy: B1 heavy with S256T, E258T, D435H, Y438T, D442E
light: not shown
notes: EU numbering; copies: 2 + 2
B34: IgG1-F1358 (antibody)
heavy: B1 heavy with S256T, E258T, D435H, Y438F, D442E
light: not shown
notes: EU numbering; copies: 2 + 2
B35: IgG1-F1320 (antibody)
heavy: B1 heavy with S256T, E258T, D435H, Y438V, K440R
light: not shown
notes: EU numbering; copies: 2 + 2
B36: IgG1-F1350 (antibody)
heavy: B1 heavy with E258T, D435H, Y438F, D442E
light: not shown
notes: EU numbering; copies: 2 + 2
B37: IgG1-F1338 (antibody)
heavy: B1 heavy with Y438V, D442E
light: not shown
notes: EU numbering; copies: 2 + 2
B38: IgG1-F1343 (antibody)
heavy: B1 heavy with S256T, D435H, Y438T, D442E
light: not shown
notes: EU numbering; copies: 2 + 2
B39: IgG1-F1344 (antibody)
heavy: B1 heavy with E258T, D435H, Y438T, D442E
light: not shown
notes: EU numbering; copies: 2 + 2
B40: IgG1-F1337 (antibody)
heavy: B1 heavy with D435H, Y438V, D442E
light: not shown
notes: EU numbering; copies: 2 + 2
B41: IgG1-F1303 (antibody)
heavy: B1 heavy with Y438T
light: not shown
notes: EU numbering; copies: 2 + 2
B42: IgG1-F1330 (antibody)
heavy: B1 heavy with G238R, D435H, Y438V, K440R, D442E
light: not shown
notes: EU numbering; copies: 2 + 2
B43: IgG1-F1345 (antibody)
heavy: B1 heavy with G238R, E258T, D435H, Y438V, D442E
light: not shown
notes: EU numbering; copies: 2 + 2
B44: IgG1-F1349 (antibody)
heavy: B1 heavy with E258T, D435H, Y438T, K440R, D442E
light: not shown
notes: EU numbering; copies: 2 + 2
B45: IgG1-F1359 (antibody)
heavy: B1 heavy with S256T, E258T, D435H, Y438F, K440R, D442E
light: not shown
notes: EU numbering; copies: 2 + 2
B46: IgG1-F1357 (antibody)
heavy: B1 heavy with S256T, E258T, D435H, Y438T, K440R, D442E
light: not shown
notes: EU numbering; copies: 2 + 2
B47: IgG1-F1322 (antibody)
heavy: B1 heavy with S256T, E258T, Y438V, K440R
light: not shown
notes: EU numbering; copies: 2 + 2
B48: IgG1-F1329 (antibody)
heavy: B1 heavy with G238R, S256T, E258T, D435H, Y438V, K440R, D442E
light: not shown
notes: EU numbering; copies: 2 + 2

Substitutions are numbered along the chain they refer to.

T1 sequence (chain, as listed by the source limits assumed, chain 1 of 2): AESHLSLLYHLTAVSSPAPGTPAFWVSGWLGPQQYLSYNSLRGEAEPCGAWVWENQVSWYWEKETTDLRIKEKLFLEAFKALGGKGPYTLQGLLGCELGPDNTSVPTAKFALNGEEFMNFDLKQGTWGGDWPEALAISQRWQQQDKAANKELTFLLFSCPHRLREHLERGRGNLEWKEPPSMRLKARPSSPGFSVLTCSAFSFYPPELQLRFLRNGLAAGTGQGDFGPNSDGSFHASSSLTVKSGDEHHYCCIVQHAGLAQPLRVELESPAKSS
T1 sequence (P61769 21-119 limits assumed, chain 2 of 2): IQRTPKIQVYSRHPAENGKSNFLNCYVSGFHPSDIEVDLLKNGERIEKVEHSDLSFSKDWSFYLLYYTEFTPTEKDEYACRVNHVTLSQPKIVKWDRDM

The test concerns the target T1, soluble human FcRn complexed with β2-microglobulin (human, UniProt P61769 21-119, limits assumed).
T1 construct: also called hFcRn
As to the kind of experiment: Biacore SPR, pH 7.0.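 Note: test antibodies captured on a Protein L chip with human FcRn flowed over as analyte, KD obtained as the ratio of dissociation to association rate constants.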 In general terms: SPR reads the build-up and loss of mass on a sensor chip optically.
Method: A kinetic analysis of binding between human FcRn and the aforementioned antibodies was carried out using the BIACORE™ T100 or T200 surface plasmon resonance system (GE Healthcare). The antibodies being tested were captured on the CM4 Sensor Chip (GE Healthcare) on which a suitable amount of Protein L (ACTIGEN® protein (Alltech)) was suitably immobilized by amine coupling. Next, diluted human FcRn and a running buffer used as a blank were injected to allow the human FcRn to interact with the antibody captured on the sensor chip. A buffer consisting of 50 mmol/L sodium phosphate, 150 mmol/L NaCl and 0.05% (w/v) polysorbate 20 (Tween 20®) (pH 7.0 or pH 7.4) was used for the running buffer, and each buffer was also used to dilute the human FcRn. 10 mmol/L glycine-HCl (pH 1.5) was used to regenerate the sensor chip. All measurements of binding were carried out at 25° C. The KD(M) of each antibody to human FcRn was calculated based on kinetics parameters, i.e., the association rate constant ka (1/Ms) and the dissociation rate constant kd (1/s) calculated from a sensorgram obtained by the measurement. The BIACORE™ T100 or T200 Evaluation Software (GE Healthcare) was used to calculate each parameter.
In general, Kd refers to the equilibrium constant for the complex coming apart. A higher Kd goes with lower affinity. As to B1, the dissociation constant (Kd) came out at 215 nM.

Molecule B2 registered an equilibrium dissociation constant (Kd) of 162 nM.

The molecule B3 yielded a Kd of 205 nM. This Kd and that of the molecule before are within 1.5-fold of each other.

The molecule B4 yielded an equilibrium dissociation constant (Kd) of 144 nM.

For the molecule B5, the Kd was determined as 393 nM.

The molecule B6 showed a Kd of 149 nM.

Turning to B7, the dissociation constant (Kd) is 433 nM. Compared with the last molecule, the Kd is about 2.9-fold higher.

In turn, B8 displayed a Kd of 267 nM.

Regarding B9, the affinity, expressed as Kd, was 71.8 nM.

B10 returned a Kd of 229 nM.

B11: binding was characterised by a dissociation constant (Kd) of 85.9 nM.

B12 gave a dissociation constant Kd of 126 nM.

In turn, B13 showed a Kd of 192 nM.

B14: binding was put at a Kd of 228 nM.

B15 displayed a dissociation constant Kd of 71.4 nM. Compared with the last molecule, the Kd is about 3.2-fold lower.

For B16, the Kd amounted to 227 nM.

Molecule B17 had a dissociation constant Kd of 152 nM.

In turn, B18 registered a dissociation constant Kd of 14.1 nM.

B19 came in with a Kd of 104 nM.

On to B20, for which the affinity, expressed as Kd, was 352 nM.

In turn, B21 showed a Kd of 247 nM.

B22 showed a Kd of 55.2 nM. This Kd lies about 4.5-fold lower than the previous one.

B23 came in with a dissociation constant Kd of 177 nM.

Regarding B24, the Kd was 124 nM. This Kd and that of the molecule before are within 1.5-fold of each other.

Regarding B25, the Kd was 312 nM.

B26: the Kd is 369 nM. The Kd values of the last two molecules are within 1.5-fold of each other.

Take B27: the Kd stood at 10.9 nM.

The molecule B28 returned a Kd of 179 nM.

Turning to B29, binding was put at a Kd of 206 nM.

Take B30: binding was put at a Kd of 77.5 nM.

The molecule B31 displayed a dissociation constant (Kd) of 103 nM. This Kd and that of the molecule before are within 1.5-fold of each other.

B32 returned a Kd of 251 nM.

On to B33, for which binding was characterised by a dissociation constant (Kd) of 322 nM.

Molecule B34 came in with a Kd of 90.7 nM. Against the preceding molecule, the Kd is about 3.6-fold lower.

In turn, B35 yielded a Kd of 122 nM.

Molecule B36 yielded a Kd of 118 nM.

Regarding B37, the dissociation constant Kd was found to be 104 nM.

In turn, B38 yielded a Kd of 201 nM.

With B39, binding was characterised by a dissociation constant (Kd) of 396 nM.

Consider B40, for which the Kd is 74.1 nM.

As to B41, the affinity, expressed as Kd, was 210 nM.

For B42, the Kd was 103 nM.

B43 gave a Kd of 105 nM.

As for B44, binding was put at a Kd of 336 nM.

B45 displayed a Kd of 128 nM.

In turn, B46 came in with an equilibrium dissociation constant (Kd) of 281 nM. This Kd lies about 2.2-fold higher than the previous one.

For the molecule B47, the Kd was 160 nM.

In turn, B48 registered a Kd of 129 nM. The Kd values of the last two molecules are within 1.5-fold of each other.

(Values after patent publication US20200199241A1 (Chugai, published 2020).)
